From US20040072368A1, “Lipoprotein receptor” (priority 2002, published 2004) come the findings set out here.

The term Kd denotes the concentration at which binding is half-saturated.

The target in assay [1] is β-subunit of ATP synthase (F1 fraction) exposed on submitochondrial particles. Briefly: binding of 5 µg/ml 125I-labeled HDL3 to submitochondrial particles, 2 h at 4 °C, no competitor. To be noted: scale: ng HDL3 protein bound per mg of mitochondrial proteins.
For assay [2] the target is unchanged. Briefly: competition with 5 µg/ml 125I-labeled HDL3 on submitochondrial particles, 2 h at 4 °C.
In assay [3] the target is total solubilised porcine liver plasma membrane proteins. Briefly: SPR (Biacore 3000, B1 chip), apoA-I immobilised by amine coupling, solubilised membrane proteins injected. (In SPR one partner is held on a chip, and binding of the other changes the refractive index at the surface.)
The target of assay [4] is porcine liver plasma membrane proteins eluted from apoA-I affinity chromatography. Briefly: SPR (Biacore), 1.5 µg of proteins injected on the apoA-I sensor chip.

Take HDL3 (from UniProt P02647 19-267): in assay [1], the 100% specific binding is 2050. In assay [2], the IC50 (read off the curve) came to 800 nM.

Substance “lipid free-apolipoprotein A-I (free-apoA-I) (from UniProt P02647 25-267) (ligand)” showed a Kd in assay [3] of 1 nM. Further, in assay [4], the relative increase of binding against crude solubilised homogenate amounted to 4 fold.
